In IntAct's records for PubMed 27150041:

Molecular target: smu2_caeel smu-2 (UniProt Q9N4U5)
Sequence (Q9N4U5 whole entry): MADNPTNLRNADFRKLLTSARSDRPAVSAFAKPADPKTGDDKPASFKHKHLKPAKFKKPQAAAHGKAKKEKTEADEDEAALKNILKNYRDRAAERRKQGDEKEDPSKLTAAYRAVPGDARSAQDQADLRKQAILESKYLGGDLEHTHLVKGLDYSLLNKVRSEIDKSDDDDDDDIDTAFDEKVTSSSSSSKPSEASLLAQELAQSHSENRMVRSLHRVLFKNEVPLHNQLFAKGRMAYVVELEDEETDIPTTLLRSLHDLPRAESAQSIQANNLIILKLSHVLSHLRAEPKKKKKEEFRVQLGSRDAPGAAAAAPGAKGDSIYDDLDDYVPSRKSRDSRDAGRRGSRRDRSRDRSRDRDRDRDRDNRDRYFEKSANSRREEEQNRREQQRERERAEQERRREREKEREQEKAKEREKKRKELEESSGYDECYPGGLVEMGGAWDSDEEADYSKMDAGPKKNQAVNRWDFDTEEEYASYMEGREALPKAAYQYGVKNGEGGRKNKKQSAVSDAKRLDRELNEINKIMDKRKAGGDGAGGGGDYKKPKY

Smu-1 suppressor of mec-8 and unc-52 protein (Caenorhabditis elegans), G5EEG7 L96R, sequence (G5EEG7 whole entry L96R): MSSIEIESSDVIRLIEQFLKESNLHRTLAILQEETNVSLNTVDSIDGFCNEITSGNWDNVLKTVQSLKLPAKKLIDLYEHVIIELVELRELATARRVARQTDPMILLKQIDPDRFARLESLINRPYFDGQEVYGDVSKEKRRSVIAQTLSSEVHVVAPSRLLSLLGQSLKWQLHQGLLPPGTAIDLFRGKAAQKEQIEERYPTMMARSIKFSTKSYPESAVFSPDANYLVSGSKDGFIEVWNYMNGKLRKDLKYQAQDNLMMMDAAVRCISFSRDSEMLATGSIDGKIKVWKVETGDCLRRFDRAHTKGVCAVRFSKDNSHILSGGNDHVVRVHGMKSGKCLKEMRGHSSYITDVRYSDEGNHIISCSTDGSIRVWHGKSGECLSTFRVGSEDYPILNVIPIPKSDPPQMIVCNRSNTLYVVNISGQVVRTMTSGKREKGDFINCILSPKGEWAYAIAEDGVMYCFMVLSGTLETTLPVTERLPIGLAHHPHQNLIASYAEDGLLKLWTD

## Smu-1 suppressor of mec-8 and unc-52 protein (Caenorhabditis elegans), G5EEG7 L96R
  effect of a mutation on the interaction: disrupting interaction strength
